B1: CXCR4膜蛋白 on Hela细胞 (receptor, UniProt P61073 1-352, looked up)
chain: MEGISIYTSDNYTEEMGSGDYDSMKEPCFREENANFNKIFLPTIYSIIFLTGIVGNGLVILVMGYQKKLRSMTDKYRLHLSVADLLFVITLPFWAVDAVANWYFGNFLCKAVHVIYTVNLYSSVLILAFISLDRYLAIVHATNSQRPRKLLAEKVVYVGVWIPALLLTIPDFIFANVSEADDRYICDRFYPNDLWVVVFQFQHIMVGLILPGIVILSCYCIIISKLSHSKGHQKRKALKTTVILILAFFACWLPYYIGISIDSFILLEIIKQGCEFENTVHKWISITEALAFFHCCLNPILYAFLGAKFKTSAQHALTSVSRGSSLKILSKGKRGGHSSVSTESESSSFHSS
notes: whole, on cells; also called Hela细胞过表达CXCR4膜蛋白; Hela细胞膜蛋白CXCR4
B2: 1B5B10 (antibody, mouse IgG2b, kappa, V domains shown)
VH: DVQLQESGPGLVKPSQSLSLTCTVTGYSITSDYAWNWIRQFPGNKLEWMGYIDNSGSTNYNPSLRSRISITRDTSKNQFFLQLNSVTTEDTATYYCALNDYHYVMDYWGQGTSVTVSS
VL: DIQMTQSPASLSASVGETVTITCRPSENIYSYLAWYQQKQGKSPQLLVYSAKTLAEGVPLRFSGSYSGTHFSLRINSLQPEDFGSYYCQHHYGSPLTFGSGTKLELKR
notes: also called 1B5B10重组抗体; 鼠单抗1B5B10

Key:
[1] = target: T1, 生物素标记SDF-1a配体(SKU# RBP48061, Reprokine) (UniProt P48061-2 22-89, biotin-labelled (site not stated)); assay: FACS on Hela cells, 0.1uM biotin-SDF-1a, SA-FITC
T1 construct: Bought biotinylated ligand; also called SDF-1α; CXCL12

CXCR4膜蛋白 on Hela细胞 = target: B1; assay: FACS on Hela cells, recombinant antibody

## B1
[1]
  binding result: binds

## B2
CXCR4膜蛋白 on Hela细胞
  binding result: binds

Source: CN117003876A (KAIKA BIO TECH SHANGHAI CO LTD, dated 2023)
